Measured values reported in the RNAGym collection of RNA variant scans (doi:10.7554/elife.80360).

B1: Hairpin Ribozyme (parent)
chain: GUCCUCUUUCACGUGCGCGUGAAAGAGAGAAGUGAACCAGAGAAACACACGUUGUGGUAUAUUACCUGGUA

Variants of: B1
Experiment: self-cleavage, relative activity (ratio to wild type); higher = more cleavage; co-transcriptional

Variant	self-cleavage
A11U U58A	0.523
G1U G19U	0.134
C12G C65G	0.174
U20C G40U	0.19
A43G U53G	0.226
A36U G68U	0.118
G32U A64C	0.258
U20C C38A	0.152
A30U A39C	0.111
U14C A36G	1.44
C3A U7A	0.822
A49G U63G	0.158
C10G G57C	0.124
A26G A31G	0.884
U5C A39G	0.192
A61U U67A	0.178
A44G U70G	0.135
C18A U33A	0.115
A44C A47G	0.125
G1C A41U	0.229
A30C U70G	0.0924
U5C C12U	0.772
G13U C38G	0.136
A28C A31G	0.333

Variant	self-cleavage
A43U G51C	0.241
A26C A30C	0.25
C10G A11C	0.799
G34U G54A	1.3
A31G U70A	0.509
C4U U70C	0.341
G27A C37A	0.219
C10U G25C	0.487
C10G U14C	0.573
G34A U58G	1.36
G19A A61G	0.158
G1U U58G	0.253
G21U G42U	0.285
C10G A26G	0.776
U9C G42C	0.264
G27U C48A	0.0902
C38G C65G	0.0624
C3A C46G	0.105
C16G C38U	0.167
G29U U55A	0.0925
G32C U53G	0.0828
G19A G69U	0.213
A47U C66U	0.228
G13U G19A	0.73

Variant	self-cleavage
G19A U20C	1.12
C6A A28U	0.365
U8G A39C	0.406
G29U A44G	0.142
C12U U52A	0.92
G42A C46U	0.0972
A47C U62G	0.227
A61C U62C	0.166
A28G U63C	0.138
G25U C66G	0.177
A43U G56U	0.133
U55C U67A	0.177
G19A A71G	0.857
A11C A30C	0.147
G13C U63C	0.111
A24U U58A	0.724
U14C C48A	0.256
C6G A23G	0.446
U8C G68A	0.186
U53C G69A	0.607
A24C U53C	0.735
C6G A22C	0.342
U7G U14A	0.666
G13U G57U	0.202

Variant	self-cleavage
G19A G56U	0.123
A26U A71U	0.433
G32C G57A	0.0977
A35G U55C	0.3
U2A G27A	0.127
G69C A71U	0.57
G17C C18G	0.645
G34A A41U	1.23
G51A G57C	0.158
A26U G42U	0.173
G25U A64U	0.142
G27C A64C	0.128
A44U U60C	0.103
G13A G32C	0.136
A24C C38A	0.228
C16A C18U	0.98
A45G U62C	0.0923
A47U G54U	0.145
G17A A47G	0.129
U14A G27A	0.39
C6A U67G	0.173
U5G G15A	0.407
G57U U67C	0.116
G25U G29C	0.153

Variant	self-cleavage
G25U U62G	0.237
G17C U70C	0.866
G32A G34A	0.07
G19A G68A	0.265
A43C C50A	0.162
C48U C50G	0.109
C12U U60G	0.504
A64U C66G	0.069
A31C G69A	0.0915
A35G U63C	0.233
A35C G42A	0.129
G1A C66U	0.127
G21U U60C	1.08
G25A G54A	0.292
C10G G68U	0.148
A30C G56U	0.157
U53A U67C	0.279
U8G A35U	0.673
G21A G56U	0.185
A24U G42A	0.257
C6A A35U	0.428
U58C	0.994
C38G A41C	0.264
G19A A39U	0.404

Variant	self-cleavage
G21A C46A	0.149
C46A A47C	0.0767
A30U G54A	0.137
G40C A44C	0.0317
G17C U70G	0.807
A11G A47G	0.0539
G13C G15C	0.541
G21C A43C	0.146
U5C C65A	0.511
A39C C66A	0.152
U9A C18G	0.617
A49C U58G	0.286
A26G U60A	0.763
C18G U70C	0.881
C4A A47U	0.0985
U2C U58C	0.175
G19A G51U	0.881
C66U U70A	0.356
C10A U70C	0.616
G29U U52G	0.0467
C18G G54A	0.51
A47U G51C	0.31
A28G A49G	0.637
U5G G25A	0.225

Variant	self-cleavage
A44C C65U	0.142
C48G A49U	0.104
C18U G32U	0.118
U7G A47G	0.174
C18U G40U	0.244
G1A U7A	0.127
G21A G68A	0.151
A31G G56U	0.106
G68A G69C	0.19
A35U A61G	0.137
C10U C48G	0.134
C50A A64C	0.124
U5G G57U	0.163
G19A U58G	0.583
A22G U58C	0.954
C37G G40C	0.13
A11C A39U	0.37
G32U A45C	0.153
U5G U60C	0.593
G51A G69U	0.439
A39G C50U	0.148
C3A U8G	0.541
G1U A30U	0.162
